Results as given in US20110300138A1 (published 2011).

Tests used:
Experiment in all cases: cell-based or functional assay
[1] = target: TSHR with Arg255 mutated to Ala (human) (UniProt P16473)
[2] = target: TSHR with Arg255 mutated to Asp expressed in CHO cells (human) (UniProt P16473)
[3] = target: TSHR with Asp232 mutated to Ala expressed in CHO cells (human) (UniProt P16473)
[4] = target: TSHR with Glu107 mutated to Ala expressed in CHO cells (human) (UniProt P16473)

TSH (ligand) showed a Mutated/Wild type (%) of cyclic AMP produced, TSH 0.01 ng/mL [1] of 161%, a Mutated/Wild type (%) of cyclic AMP produced, TSH 0.03 ng/mL [1] of 141% and a Mutated/Wild type (%) of cyclic AMP produced, TSH 0.1 ng/mL [1] of 126%. For the same substance, the Mutated/Wild type (%) of cyclic AMP produced, TSH 0.3 ng/mL [1] was 101%, the Mutated/Wild type (%) of cyclic AMP produced, TSH 1 ng/mL [1] was 90% and the Mutated/wild type (%) of cyclic AMP produced; TSH 3 ng/mL [1] was 91%. The Cyclic AMP produced (pmol/mL), TSH 0.01 ng/mL, Experiment 1 [2] was 2.59 pmol/mL, the Cyclic AMP produced (pmol/mL), TSH 0.01 ng/mL, Experiment 2 [2] was 1.49 pmol/mL and the Cyclic AMP produced (pmol/mL), TSH 0.01 ng/mL, Experiment 3 [2] was 6.46 pmol/mL. It also gave a Cyclic AMP produced (pmol/mL), TSH 0.03 ng/mL, Experiment 1 [2] of 6.47 pmol/mL, a Cyclic AMP produced (pmol/mL), TSH 0.03 ng/mL, Experiment 2 [2] of 2.81 pmol/mL and a Cyclic AMP produced (pmol/mL), TSH 0.03 ng/mL, Experiment 3 [2] of 9.44 pmol/mL. It also gave a Cyclic AMP produced (pmol/mL), TSH 0.1 ng/mL, Experiment 1 [2] of 19.2 pmol/mL, a Cyclic AMP produced (pmol/mL), TSH 0.1 ng/mL, Experiment 2 [2] of 6.92 pmol/mL and a Cyclic AMP produced (pmol/mL), TSH 0.1 ng/mL, Experiment 3 [2] of 22.7 pmol/mL. It also gave a Cyclic AMP produced (pmol/mL), TSH 0.3 ng/mL, Experiment 1 [2] of 51.7 pmol/mL, a Cyclic AMP produced (pmol/mL), TSH 0.3 ng/mL, Experiment 2 (duplicate determination) [2] of 21.2 pmol/mL and a Cyclic AMP produced (pmol/mL), TSH 0.3 ng/mL, Experiment 3 [2] of 68.9 pmol/mL. For the same substance, the Cyclic AMP produced (pmol/mL), TSH 1 ng/mL, Experiment 1 [2] was 68.6 pmol/mL, the Cyclic AMP produced (pmol/mL), TSH 1 ng/mL, Experiment 2 [2] was 41.1 pmol/mL and the Cyclic AMP produced (pmol/mL), TSH 1 ng/mL, Experiment 3 [2] was 154 pmol/mL. It also gave a Cyclic AMP produced (pmol/mL), TSH 3 ng/mL, Experiment 1 [2] of 57.7 pmol/mL, a Cyclic AMP produced (pmol/mL), TSH 3 ng/mL, Experiment 2 [2] of 52.4 pmol/mL and a Cyclic AMP produced (pmol/mL), TSH 3 ng/mL, Experiment 3 [2] of 201 pmol/mL. The Mutated/Wild type (%) of cyclic AMP produced, TSH 0.01 ng/mL, Experiment 1 [2] was 59%, the Mutated/Wild type (%) of cyclic AMP produced, TSH 0.01 ng/mL, Experiment 2 [2] was 67% and the Mutated/Wild type (%) of cyclic AMP produced, TSH 0.01 ng/mL, Experiment 3 [2] was 124%. It also gave a Mutated/Wild type (%) of cyclic AMP produced, TSH 0.03 ng/mL, Experiment 1 [2] of 70%, a Mutated/Wild type (%) of cyclic AMP produced, TSH 0.03 ng/mL, Experiment 2 [2] of 78% and a Mutated/Wild type (%) of cyclic AMP produced, TSH 0.03 ng/mL, Experiment 3 [2] of 96%. The Mutated/Wild type (%) of cyclic AMP produced, TSH 0.1 ng/mL, Experiment 1 [2] was 71%, the Mutated/Wild type (%) of cyclic AMP produced, TSH 0.1 ng/mL, Experiment 2 [2] was 88% and the Mutated/Wild type (%) of cyclic AMP produced, TSH 0.1 ng/mL, Experiment 3 [2] was 91%. It also gave a Mutated/Wild type (%) of cyclic AMP produced, TSH 0.3 ng/mL, Experiment 1 [2] of 123%, a Mutated/Wild type (%) of cyclic AMP produced, TSH 0.3 ng/mL, Experiment 2 [2] of 78% and a Mutated/Wild type (%) of cyclic AMP produced, TSH 0.3 ng/mL, Experiment 3 [2] of 75%. For the same substance, the Mutated/Wild type (%) of cyclic AMP produced, TSH 1 ng/mL, Experiment 1 [2] was 114%, the Mutated/Wild type (%) of cyclic AMP produced, TSH 1 ng/mL, Experiment 2 [2] was 76% and the Mutated/Wild type (%) of cyclic AMP produced, TSH 1 ng/mL, Experiment 3 [2] was 80%. The Mutated/wild type (%) of cyclic AMP produced; TSH 3 ng/mL; Experiment 1 [2] was 94%, the Mutated/wild type (%) of cyclic AMP produced; TSH 3 ng/mL; Experiment 2 [2] was 90% and the Cyclic AMP produced, mutated TSHR, TSH 0.01 ng/mL (Experiment 1) [3] was 1.4 pmol/mL. It also gave a Cyclic AMP produced, mutated TSHR, TSH 0.01 ng/mL (Experiment 2) [3] of 2.58 pmol/mL, a Cyclic AMP produced, mutated TSHR, TSH 0.03 ng/mL (Experiment 1) [3] of 2.16 pmol/mL and a Cyclic AMP produced, mutated TSHR, TSH 0.03 ng/mL (Experiment 2) [3] of 4.1 pmol/mL. For the same substance, the Cyclic AMP produced, mutated TSHR, TSH 0.1 ng/mL (Experiment 1) [3] was 5.39 pmol/mL, the Cyclic AMP produced, mutated TSHR, TSH 0.1 ng/mL (Experiment 2) [3] was 9.44 pmol/mL and the Cyclic AMP produced, mutated TSHR, TSH 0.3 ng/mL (Experiment 1) [3] was 15.1 pmol/mL. For the same substance, the Cyclic AMP produced, mutated TSHR, TSH 0.3 ng/mL (Experiment 2) [3] was 23.5 pmol/mL, the Cyclic AMP produced, mutated TSHR, TSH 1 ng/mL (Experiment 1) [3] was 31.9 pmol/mL and the Cyclic AMP produced, mutated TSHR, TSH 1 ng/mL (Experiment 2) [3] was 44.4 pmol/mL. The Cyclic AMP produced, mutated TSHR, TSH 3 ng/mL (Experiment 1) [3] was 41 pmol/mL, the Cyclic AMP produced, mutated TSHR, TSH 3 ng/mL (Experiment 2) [3] was 62 pmol/mL and the Mutated/Wild type (%) of cyclic AMP produced, TSH 0.01 ng/mL, Experiment 1 [3] was 83%. It also gave a Mutated/Wild type (%) of cyclic AMP produced, TSH 0.01 ng/mL, Experiment 2 [3] of 62%, a Mutated/Wild type (%) of cyclic AMP produced, TSH 0.03 ng/mL, Experiment 1 [3] of 88% and a Mutated/Wild type (%) of cyclic AMP produced, TSH 0.03 ng/mL, Experiment 2 [3] of 83%. The Mutated/Wild type (%) of cyclic AMP produced, TSH 0.1 ng/mL, Experiment 1 [3] was 87%, the Mutated/Wild type (%) of cyclic AMP produced, TSH 0.1 ng/mL, Experiment 2 [3] was 84% and the Mutated/Wild type (%) of cyclic AMP produced, TSH 0.3 ng/mL, Experiment 1 [3] was 80%. For the same substance, the Mutated/Wild type (%) of cyclic AMP produced, TSH 0.3 ng/mL, Experiment 2 [3] was 75%, the Mutated/Wild type (%) of cyclic AMP produced, TSH 1 ng/mL, Experiment 1 [3] was 70% and the Mutated/Wild type (%) of cyclic AMP produced, TSH 1 ng/mL, Experiment 2 [3] was 60%. It also gave a Mutated/wild type (%) of cyclic AMP produced; TSH 3 ng/mL; Experiment 1 [3] of 66%, a Mutated/wild type (%) of cyclic AMP produced; TSH 3 ng/mL; Experiment 2 [3] of 64% and a % inhibition of TSH stimulation; TSH (2) [4] of 12%. For the same substance, the Cyclic AMP produced, mutated TSHR, TSH 0.01 ng/mL [4] was 8.2 pmol/mL, the Cyclic AMP produced, mutated TSHR, TSH 0.03 ng/mL [4] was 8.92 pmol/mL and the Cyclic AMP produced, mutated TSHR, TSH 0.1 ng/mL [4] was 8.24 pmol/mL. The Cyclic AMP produced, mutated TSHR, TSH 0.3 ng/mL [4] was 15.7 pmol/mL, the Cyclic AMP produced, mutated TSHR, TSH 1 ng/mL [4] was 30.2 pmol/mL and the Cyclic AMP produced, mutated TSHR, TSH 3 ng/mL [4] was 43.9 pmol/mL.
